Results: the RNAGym collection of RNA variant scans (doi:10.1021/acssynbio.7b00057)

B1: Pistol ribozyme (parent)
chain: GGGUCGUUGUUCCAUAAUCGCGUGGAUAUGGCACGCAAGUUUCUACCGGGCACCGUAAAUGUCCGACUGGAGCCGUUCGGGCGGCUAUAAACAGACCUCAGGCCCGAAGCGUGGCGGCACCUGCCGCCGGUGGUAAAAAAGAUCGGAAGAGCACACGUCU

Variants of: B1
Experiment: aptazyme ON/OFF ratio, guanine; higher = stronger switching; co-transcriptional cleavage with and without guanine
In the case of GGGUCGUCCACUCAUAAUCGCGUGGAUAUGGCACGCAAGUUUCUACCGGGCACCGUAAAUGUCCGACUGGAGCCGUUCGGGCGGCUAUAAACAGACCUCAGGCCCGAAGCGUGGCGGCACCUGCCGCCGGUGGUAAAAAAGAUCGGAAGAGCACACGUCU [U8C G9C U10A U11C C12U], the “aptazyme ON/OFF ratio” value is reported as 1.21. For GGGUCGUCCAGCCAUAAUCGCGUGGAUAUGGCACGCAAGUUUCUACCGGGCACCGUAAAUGUCCGACUGGAGCCGUUCGGGCGGCUAUAAACAGACCUCAGGCCCGAAGCGUGGCGGCACCUGCCGCCGGUGGUAAAAAAGAUCGGAAGAGCACACGUCU [U8C G9C U10A U11G], the “aptazyme ON/OFF ratio” value was 1.16. For GGGUCGUCCAGGGAUAAUCGCGUGGAUAUGGCACGCAAGUUUCUACCGGGCACCGUAAAUGUCCGACUGGAGCCGUUCGGGCGGCUAUAAACAGACCUCAGGCCCGAAGCGUGGCGGCACCUGCCGCCGGUGGUAAAAAAGAUCGGAAGAGCACACGUCU [U8C G9C U10A U11G C12G C13G], the “aptazyme ON/OFF ratio” value was 1.11. In the case of GGGUCGUCCAGGAAUAAUCGCGUGGAUAUGGCACGCAAGUUUCUACCGGGCACCGUAAAUGUCCGACUGGAGCCGUUCGGGCGGCUAUAAACAGACCUCAGGCCCGAAGCGUGGCGGCACCUGCCGCCGGUGGUAAAAAAGAUCGGAAGAGCACACGUCU [U8C G9C U10A U11G C12G C13A], the “aptazyme ON/OFF ratio” value is reported as 1.19. With GGGUCGUCCAGGUAUAAUCGCGUGGAUAUGGCACGCAAGUUUCUACCGGGCACCGUAAAUGUCCGACUGGAGCCGUUCGGGCGGCUAUAAACAGACCUCAGGCCCGAAGCGUGGCGGCACCUGCCGCCGGUGGUAAAAAAGAUCGGAAGAGCACACGUCU [U8C G9C U10A U11G C12G C13U] the “aptazyme ON/OFF ratio” value was 1.09. In the case of GGGUCGUCCACCAAUAAUCGCGUGGAUAUGGCACGCAAGUUUCUACCGGGCACCGUAAAUGUCCGACUGGAGCCGUUCGGGCGGCUAUAAACAGACCUCAGGCCCGAAGCGUGGCGGCACCUGCCGCCGGUGGUAAAAAAGAUCGGAAGAGCACACGUCU [U8C G9C U10A U11C C13A], the “aptazyme ON/OFF ratio” value is reported as 1.23. With GGGUCGUCCACCGAUAAUCGCGUGGAUAUGGCACGCAAGUUUCUACCGGGCACCGUAAAUGUCCGACUGGAGCCGUUCGGGCGGCUAUAAACAGACCUCAGGCCCGAAGCGUGGCGGCACCUGCCGCCGGUGGUAAAAAAGAUCGGAAGAGCACACGUCU [U8C G9C U10A U11C C13G] the “aptazyme ON/OFF ratio” value was 1.2. With GGGUCGUCCACCUAUAAUCGCGUGGAUAUGGCACGCAAGUUUCUACCGGGCACCGUAAAUGUCCGACUGGAGCCGUUCGGGCGGCUAUAAACAGACCUCAGGCCCGAAGCGUGGCGGCACCUGCCGCCGGUGGUAAAAAAGAUCGGAAGAGCACACGUCU [U8C G9C U10A U11C C13U] the “aptazyme ON/OFF ratio” value was 1.14. In the case of GGGUCGUCCAGUAAUAAUCGCGUGGAUAUGGCACGCAAGUUUCUACCGGGCACCGUAAAUGUCCGACUGGAGCCGUUCGGGCGGCUAUAAACAGACCUCAGGCCCGAAGCGUGGCGGCACCUGCCGCCGGUGGUAAAAAAGAUCGGAAGAGCACACGUCU [U8C G9C U10A U11G C12U C13A], the “aptazyme ON/OFF ratio” value is reported as 1.19. With GGGUCGUCCAGACAUAAUCGCGUGGAUAUGGCACGCAAGUUUCUACCGGGCACCGUAAAUGUCCGACUGGAGCCGUUCGGGCGGCUAUAAACAGACCUCAGGCCCGAAGCGUGGCGGCACCUGCCGCCGGUGGUAAAAAAGAUCGGAAGAGCACACGUCU [U8C G9C U10A U11G C12A] the “aptazyme ON/OFF ratio” value was 1.07. For GGGUCGUCCAGUCAUAAUCGCGUGGAUAUGGCACGCAAGUUUCUACCGGGCACCGUAAAUGUCCGACUGGAGCCGUUCGGGCGGCUAUAAACAGACCUCAGGCCCGAAGCGUGGCGGCACCUGCCGCCGGUGGUAAAAAAGAUCGGAAGAGCACACGUCU [U8C G9C U10A U11G C12U], the “aptazyme ON/OFF ratio” value was 1.22. In the case of GGGUCGUCCAGGCAUAAUCGCGUGGAUAUGGCACGCAAGUUUCUACCGGGCACCGUAAAUGUCCGACUGGAGCCGUUCGGGCGGCUAUAAACAGACCUCAGGCCCGAAGCGUGGCGGCACCUGCCGCCGGUGGUAAAAAAGAUCGGAAGAGCACACGUCU [U8C G9C U10A U11G C12G], the “aptazyme ON/OFF ratio” value is reported as 1.32. With GGGUCGUCCAGAAAUAAUCGCGUGGAUAUGGCACGCAAGUUUCUACCGGGCACCGUAAAUGUCCGACUGGAGCCGUUCGGGCGGCUAUAAACAGACCUCAGGCCCGAAGCGUGGCGGCACCUGCCGCCGGUGGUAAAAAAGAUCGGAAGAGCACACGUCU [U8C G9C U10A U11G C12A C13A] the “aptazyme ON/OFF ratio” value was 1.16. With GGGUCGUCCAGAUAUAAUCGCGUGGAUAUGGCACGCAAGUUUCUACCGGGCACCGUAAAUGUCCGACUGGAGCCGUUCGGGCGGCUAUAAACAGACCUCAGGCCCGAAGCGUGGCGGCACCUGCCGCCGGUGGUAAAAAAGAUCGGAAGAGCACACGUCU [U8C G9C U10A U11G C12A C13U] the “aptazyme ON/OFF ratio” value was 1.07. For GGGUCGUCCAGAGAUAAUCGCGUGGAUAUGGCACGCAAGUUUCUACCGGGCACCGUAAAUGUCCGACUGGAGCCGUUCGGGCGGCUAUAAACAGACCUCAGGCCCGAAGCGUGGCGGCACCUGCCGCCGGUGGUAAAAAAGAUCGGAAGAGCACACGUCU [U8C G9C U10A U11G C12A C13G], the “aptazyme ON/OFF ratio” value was 1.09. In the case of GGGUCGUCCACUUAUAAUCGCGUGGAUAUGGCACGCAAGUUUCUACCGGGCACCGUAAAUGUCCGACUGGAGCCGUUCGGGCGGCUAUAAACAGACCUCAGGCCCGAAGCGUGGCGGCACCUGCCGCCGGUGGUAAAAAAGAUCGGAAGAGCACACGUCU [U8C G9C U10A U11C C12U C13U], the “aptazyme ON/OFF ratio” value is reported as 1.19. In the case of GGGUCGUCCACUAAUAAUCGCGUGGAUAUGGCACGCAAGUUUCUACCGGGCACCGUAAAUGUCCGACUGGAGCCGUUCGGGCGGCUAUAAACAGACCUCAGGCCCGAAGCGUGGCGGCACCUGCCGCCGGUGGUAAAAAAGAUCGGAAGAGCACACGUCU [U8C G9C U10A U11C C12U C13A], the “aptazyme ON/OFF ratio” value is reported as 1.19. With GGGUCGUCCACUGAUAAUCGCGUGGAUAUGGCACGCAAGUUUCUACCGGGCACCGUAAAUGUCCGACUGGAGCCGUUCGGGCGGCUAUAAACAGACCUCAGGCCCGAAGCGUGGCGGCACCUGCCGCCGGUGGUAAAAAAGAUCGGAAGAGCACACGUCU [U8C G9C U10A U11C C12U C13G] the “aptazyme ON/OFF ratio” value was 1.17.
